# Laboratory results: paper PMC7502788
# Legend:
# Assay in all cases: BLI
# [1] = molecular target: TBTI_13C3x8D3 HC_Y52A_mIgG1 (mouse)
# [2] = molecular target: TBTI_13C3x8D3 LC_G68I_mIgG1 (mouse)
# [3] = molecular target: TBTI_13C3x8D3_HC_Y52A-S101A/LC_Y49A-Y92A-mIgG1 (mouse)
# [4] = molecular target: TBTI_8D3x13C3_mIgG1 (mouse)
# [5] = molecular target: TBTI_13C3x8D3_HC_N31A/LC_Y92A_mIgG1 (mouse)
# [6] = molecular target: TBTI_13C3x8D3_mIgG1 (mouse)
# [7] = molecular target: TBTI_13C3x8D3_HC_Y52A/LC_Y92A_mIgG1 (mouse)
# [8] = molecular target: TBTI_13C3x8D3_HC_S101A/LC_Y92A_mIgG1 (mouse)
# [9] = molecular target: TBTI_13C3x8D3 HC_N31A_mIgG1 (mouse)
# [10] = molecular target: TBTI_13C3x8D3 LC_N31A_mIgG1 (mouse)
# [11] = molecular target: TBTI_13C3x8D3 HC_S101A_mIgG1 (mouse)
# [12] = molecular target: TBTI_13C3x8D3_HC_Y52A/LC_Y49A_mIgG1 (mouse)
# [13] = molecular target: TBTI_13C3x8D3 LC_Y49A_mIgG1 (mouse)
# [14] = molecular target: TBTI_13C3x8D3 HC_T100A_mIgG1 (mouse)
# [15] = molecular target: TBTI_13C3x8D3 LC_Y92A_mIgG1 (mouse)
# [16] = molecular target: TBTI_13C3x8D3 HC_Y53A_mIgG1 (mouse)
# Anti-mTfRC 8D3 (mouse) = molecular target: Anti-mTfRC 8D3 (mouse)
# [17] = molecular target: TBTI_13C3x8D3 LC_N93A_mIgG1 (mouse)
substance,measurement,setting,value
"mouse transferrin receptor protein (mTfR), Sino Biological 50741-M07H (from UniProt Q62351 89-763)",Kd,[1],17.9 nM
same,koff,[1],0.000521 s⁻¹
same,kon,[1],29200 M⁻¹ s⁻¹
same,Kd,[2],3.84 nM
same,koff,[2],0.000105 s⁻¹
same,kon,[2],27200 M⁻¹ s⁻¹
same,Kd,[3],19.6 nM
same,koff,[3],0.00111 s⁻¹
same,kon,[3],32600 M⁻¹ s⁻¹
same,Kd,[4],0.4 nM
same,koff,[4],2.9e-05 s⁻¹
same,kon,[4],74400 M⁻¹ s⁻¹
same,koff,[5],0.000553 s⁻¹
same,kon,[5],62100 M⁻¹ s⁻¹
same,Kd,[6],2.83 nM
same,koff,[6],9.9e-05 s⁻¹
same,kon,[6],35300 M⁻¹ s⁻¹
same,Kd,[7],29.2 nM
same,koff,[7],0.000734 s⁻¹
same,kon,[7],25200 M⁻¹ s⁻¹
same,Kd,[8],6.94 nM
same,koff,[8],0.000357 s⁻¹
same,kon,[8],51400 M⁻¹ s⁻¹
same,Kd,[9],6.61 nM
same,koff,[9],0.000159 s⁻¹
same,Kd,[10],2.18 nM
same,koff,[10],5.4e-05 s⁻¹
same,Kd,[11],8.96 nM
same,koff,[11],0.000258 s⁻¹
same,kon,[11],28800 M⁻¹ s⁻¹
same,koff,[12],0.000689 s⁻¹
same,kon,[12],793000 M⁻¹ s⁻¹
same,Kd,[13],4.46 nM
same,koff,[13],9.9e-05 s⁻¹
same,kon,[13],22100 M⁻¹ s⁻¹
same,Kd,[14],3.83 nM
same,koff,[14],0.000233 s⁻¹
same,kon,[14],60800 M⁻¹ s⁻¹
same,Kd,[15],6.88 nM
same,koff,[15],0.000149 s⁻¹
same,kon,[15],21700 M⁻¹ s⁻¹
same,Kd,[16],4.25 nM
same,koff,[16],0.000124 s⁻¹
same,kon,[16],29200 M⁻¹ s⁻¹
same,Kd,Anti-mTfRC 8D3 (mouse),0.54 nM
same,koff,Anti-mTfRC 8D3 (mouse),3.9e-05 s⁻¹
same,kon,Anti-mTfRC 8D3 (mouse),71300 M⁻¹ s⁻¹
same,Kd,[17],4.16 nM
same,koff,[17],0.000112 s⁻¹
same,kon,[17],27100 M⁻¹ s⁻¹
